The record followed here is patent US20070269898A1, “Amino Acid Sequences Essential to Neuron Specific Gene Expression” (YOKOHAMA CITY UNIVERSITY, priority 2004, published 2007).

Where no end group is shown, it is not given here.

One series is described as follows: Solubility of peptide. Type of series: physicochemical. The note with it: before adding KKKK to the C-terminus.
For a further series, the target named is T1, mSin3B PAH1 domain (Mus musculus, UniProt Q62141).
T1 construct: Gly-Ser-His-Met (vector-derived N-terminal residues; general statement only, not tied to the sample used) (N); made in house
T1 sequence (Q62141 28-107): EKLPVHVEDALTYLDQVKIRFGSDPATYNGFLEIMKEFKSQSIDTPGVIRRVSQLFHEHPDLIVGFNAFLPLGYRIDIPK
The series is described as follows: 1H-15N HSQC interaction / titration experiment with 15N-labeled mSin3B PAH1 domain. The note with it: for Spectrum (1H-15N HSQC of 15N-mSin3B PAH1 after adding the peptide: complex or single peptide): peptide added to aqueous solution of 15N-labeled mSin3B PAH1. Type of series: binding. The procedure:
Interaction candidate regions of NRSF/REST (a.a. 43-83, 39-55, 38-57, 64-80 and 68-83) were individually added to an aqueous solution of ^15N-labeled mSin3B PAH1 for measuring ^1H—^15N HSQC to thereby determine a region necessary for the interaction. In order to examine binding ratios, NRSF/REST (a.a. 42-56) at varied concentrations was added to ^15N-labeled mSin3B PAH1 domain in phosphate buffer (pH 6.6), followed by observation of signal changes by ^1H—^15N HSQC. […] Further, in order to carry out quantitative determination of concentrations with UV, a residue having an aromatic ring (W) was also added to the peptide. In a similar manner, the interaction between ^15N-labeled mSin3B PAH1 domain and N—CoR (a.a. 1829-1847) was observed by ^1H-^15N HSQC. For all of the NMR measurement, Bruker Advance 700 was used.
^1H—^15N HSQC spectra were measured when NRSF/REST (a.a. 42-56) was added to 0.1 mM ^15N-labeled mSin3B PAH1 domain at a molar ratio of 1:0, 1:0.5, 1:1 or 1:2. As the concentration of NRSF/REST increased, signals from the single peptide mSin3B disappeared and new signals derived from the mSin3B in complex began to appear. […] No difference was recognized between mSin3B PAH1:NRSF/REST ratios of 1:1 and 1:2. Therefore, it was shown that mSin3B PAH1 domain and NRSF/REST form a complex with 1:1.
^1H—^15N HSQC spectra were measured when N—CoR was added to 0.1 mM ^15N-labeled mSin3B PAH1 domain at a molar ratio of 1:0, 1:0.2, 1:0.4, 1:0.6, 1:0.8, 1:1, 1:2 or 1:3. The positions of signals shifted in a N—CoR concentration dependent manner.

Series [1] has as its target T2, PAH1 domain of mSin3B (a.a. 28-107) (mouse, UniProt O75182 35-114 (human entry)).
T2 construct: Expressed in E. coli from pET-28a (NdeI-BamHI) and the His-tag was cut off with thrombin; Used 15N-labeled (or 13C/15N-labeled) in NMR; Stated molecular weight 9585; also called mSin3B PAH1 domain; mSin3B PAH1
T2 sequence: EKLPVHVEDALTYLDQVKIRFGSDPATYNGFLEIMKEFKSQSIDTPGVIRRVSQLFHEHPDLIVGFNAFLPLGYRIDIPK
As to the kind of experiment: 1H-15N HSQC NMR, peptide added to 15N-labeled mSin3B PAH1 domain. The procedure:
(§1) Interaction candidate regions of NRSF/REST (a.a. 43-83, 39-55, 38-57, 64-80 and 68-83) were individually added to an aqueous solution of ¹⁵N-labeled mSin3B PAH1 for measuring ¹H—¹⁵N HSQC to thereby determine a region necessary for the interaction. In order to examine binding ratios, NRSF/REST (a.a. 42-56) at varied concentrations was added to ¹⁵N-labeled mSin3B PAH1 domain in phosphate buffer (pH 6.6), followed by observation of signal changes by ¹H—¹⁵N HSQC. Since NRSF/REST (a.a. 42-56) is sparingly soluble, basic residues (KKKK) were added to its C-terminus to improve the solubility. Further, in order to carry out quantitative determination of concentrations with UV, a residue having an aromatic ring (W) was also added to the peptide. […] For all of the NMR measurement, Bruker Advance 700 was used.

The target in series [2] is T2, PAH1 domain of mSin3B (a.a. 28-107). The series is described as follows: 1H-15N HSQC titration, 0.1 mM 15N-labeled mSin3B PAH1 at molar ratios 1:0 to 1:3. The procedure: as §1
¹H—¹⁵N HSQC spectra were measured when N—CoR was added to 0.1 mM ¹⁵N-labeled mSin3B PAH1 domain at a molar ratio of 1:0, 1:0.2, 1:0.4, 1:0.6, 1:0.8, 1:1, 1:2 or 1:3. The positions of signals shifted in a N—CoR concentration dependent manner. A rapid exchange process on the NMR timescale was shown.

For the molecule AAPQLIMLANVALTGKKKKW [NRSF/REST 42-56], the solubility result in “Solubility of peptide” is listed as “sparingly soluble”.

In the case of “AELAAPQLIMLANVALT (listed as Homo sapiens) [NRSF/REST 39-55, synthetic peptide of NRSF/REST residues 39-55]”, the “Spectrum (1H-15N HSQC of 15N-mSin3B PAH1 after adding the peptide: complex or single peptide)” value (“Spectrum” below) with mSin3B PAH1 domain is reported as “Complex”.

“APQLIMLANVALTGEVNGSCCDYLVGEERQMAELMPVGDNN (listed as Homo sapiens) [NRSF/REST 43-83, NRSF/REST residues 43-83, expressed as GST fusion in E. coli and cut with thrombin]”: in the series with mSin3B PAH1 domain, the “Spectrum” value is “Complex”.

Turning to “DYLVGEERQMAELMPVG (listed as Homo sapiens) [NRSF/REST 64-80, synthetic peptide of NRSF/REST residues 64-80]”, the “Spectrum” value with mSin3B PAH1 domain was “Single”.

For the molecule “GEERQMAELMPVGDNN (listed as Homo sapiens) [NRSF/REST 68-83, synthetic peptide of NRSF/REST residues 68-83]”, the “Spectrum” value with mSin3B PAH1 domain is “Single”.

“KAELAAPQLIMLANVALTGE (listed as Homo sapiens) [NRSF/REST 38-57, synthetic peptide of NRSF/REST residues 38-57]”: the “Spectrum” value with mSin3B PAH1 domain was “Complex”.

As to “N—CoR (a.a. 1829-1847): synthetic peptide of residues 1829-1847 of transcriptional co-repressor N—CoR (RYNTAADALAALVDAAASA; listed as Homo sapiens)”, the “interaction with the PAH1 domain relative to NRSF/REST” value in the series with mSin3B PAH1 domain (1H-15N HSQC) is on record as “interacts with the PAH1 domain, though more weakly than NRSF/REST”. Moreover, in the series with mSin3B PAH1 domain (titration into 0.1 mM 15N-labeled mSin3B PAH1 domain, 1H-15N HSQC), the “exchange process on the NMR timescale” value was “rapid exchange process”.

B1: NRSF/REST (a.a. 42-56) to which KKKK and W are added to its C-terminus (peptide)
peptide: AAPQLIMLANVALTGKKKKW
notes: Synthetic peptide, molecular weight 2182; also called NRSF/REST42-56
Take B1: in series [1], the binding result was “binds”.

B2: NRSF/REST (a.a. 38-57) (peptide)
peptide: KAELAAPQLIMLANVALTGE
notes: Synthetic peptide, molecular weight 2053; Used for NMR structure analysis of the complex; also called NRSF/REST38-57
For B2, the binding result in series [1] is listed as “binds”.

B3: N-CoR (a.a. 1829-1847) (peptide)
peptide: RYNTAADALAALVDAAASA
notes: Synthetic peptide, molecular weight 1835; also called co-repressor N-CoR
B3: in series [2], the binding result is listed as “binds”.

B4: NRSF/REST (a.a. 39-55) (peptide)
peptide: AELAAPQLIMLANVALT
notes: Synthetic peptide, molecular weight 1739; also called NRSF/REST39-55
Consider B4, for which the binding result in series [1] is “binds”.

B5: NRSF/REST (a.a. 68-83) (peptide)
peptide: GEERQMAELMPVGDNN
notes: Synthetic peptide, molecular weight 1790
On to B5, for which the binding result in series [1] was “no binding”.

B6: NRSF/REST (a.a. 64-80) (peptide)
peptide: DYLVGEERQMAELMPVG
notes: Synthetic peptide, molecular weight 1937
For the molecule B6, the binding result in series [1] was “no binding”.

B7: NRSF/REST (a.a. 43-83) (peptide)
peptide: APQLIMLANVALTGEVNGSCCDYLVGEERQMAELMPVGDNN
notes: Recombinant, made as a GST fusion (pGEX-2T, BamHI-EcoRI) and GST was cut off with thrombin; Stated molecular weight 4511; also called NRSF/REST43-83
In the case of B7, the binding result in series [1] is on record as “binds”.
